According to article PMC6557901, “Rif1 S-acylation mediates DNA double-strand break repair at the inner nuclear membrane”:

Target: T1, Rif1 NTD (100-1322) C466A/C473A (Saccharomyces cerevisiae, UniProt P29539 100-1322, C466A;C473A)
T1 sequence: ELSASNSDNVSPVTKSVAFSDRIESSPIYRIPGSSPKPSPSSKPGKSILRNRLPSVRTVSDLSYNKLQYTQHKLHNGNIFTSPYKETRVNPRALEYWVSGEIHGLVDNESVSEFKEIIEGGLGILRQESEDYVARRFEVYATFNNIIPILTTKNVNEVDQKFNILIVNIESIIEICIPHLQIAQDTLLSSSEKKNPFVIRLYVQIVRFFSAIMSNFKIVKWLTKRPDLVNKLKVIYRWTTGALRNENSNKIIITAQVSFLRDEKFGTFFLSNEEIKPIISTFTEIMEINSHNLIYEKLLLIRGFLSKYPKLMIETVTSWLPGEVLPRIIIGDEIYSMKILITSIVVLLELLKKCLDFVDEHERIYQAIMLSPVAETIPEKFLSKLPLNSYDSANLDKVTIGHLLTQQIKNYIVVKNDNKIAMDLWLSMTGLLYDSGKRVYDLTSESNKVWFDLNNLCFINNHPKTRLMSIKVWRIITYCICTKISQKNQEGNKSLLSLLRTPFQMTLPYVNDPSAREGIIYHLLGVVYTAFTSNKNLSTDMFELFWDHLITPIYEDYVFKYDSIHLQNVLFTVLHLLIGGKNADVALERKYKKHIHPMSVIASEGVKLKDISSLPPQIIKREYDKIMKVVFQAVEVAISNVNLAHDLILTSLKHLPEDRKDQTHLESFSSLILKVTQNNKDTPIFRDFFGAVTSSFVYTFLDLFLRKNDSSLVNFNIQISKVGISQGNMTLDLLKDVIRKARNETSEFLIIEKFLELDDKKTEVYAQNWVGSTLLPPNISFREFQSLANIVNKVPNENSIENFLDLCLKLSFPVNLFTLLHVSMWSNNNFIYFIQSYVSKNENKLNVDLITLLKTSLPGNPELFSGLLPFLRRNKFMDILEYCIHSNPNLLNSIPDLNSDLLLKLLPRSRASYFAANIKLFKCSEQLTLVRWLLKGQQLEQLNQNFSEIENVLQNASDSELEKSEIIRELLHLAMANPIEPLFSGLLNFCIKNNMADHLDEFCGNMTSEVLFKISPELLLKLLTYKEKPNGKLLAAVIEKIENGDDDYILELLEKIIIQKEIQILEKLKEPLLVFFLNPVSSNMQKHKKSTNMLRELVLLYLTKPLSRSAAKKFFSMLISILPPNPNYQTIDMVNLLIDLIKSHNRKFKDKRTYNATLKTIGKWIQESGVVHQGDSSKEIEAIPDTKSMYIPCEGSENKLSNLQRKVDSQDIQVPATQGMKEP
Test: EMSA; protein 10-160 nM, DNA 1 nM; apparent affinity similar to wild-type; 20 mM Tris-HCl pH 8.0, 100 mM NaCl, 2.5 mM MgCl2, 10 mM CaCl2, 0.1 mg/ml BSA, 1 mM TCEP, 30 min at 20 °C; 1.2% agarose gel, 0.5x TBE, 4 °C
Conditions: protein: recombinant; tags: N-terminal Strep(II); label: 5'-32P on EMSA1; blunt

B1: 30 bp dsDNA (EMSA1/EMSA2) (dsDNA)
DNA 1: TAGCAAGGCACTGGTAGAATTCGGCAGCGT
DNA 2: ACGCTGCCGAATTCTACCAGTGCCTTGCTA
Question: Does B1 bind?
Answer: binds
